Laboratory results as given in article PMC10195009.

molecular target: afucosylated IgG-specific nanobody X0; assay: SPR; settings: parent: est. 0; read off a plot

| Substance | other: log2 fold change in KD [log2] |
| --- | --- |
| afucosylated IgG1 Fc E269A | 0.95 |
| afucosylated IgG1 Fc H268A | -1.5 |
| afucosylated IgG1 Fc I332A | 0.08 |
| afucosylated IgG1 Fc L328A | -0.15 |
| afucosylated IgG1 Fc P329A | 0.03 |
